Reference: US20180118848A1

Target: human MUC16 (mucin 16) (human)
Assay: MSD ECL cell binding, RLU ratio OVCAR-3 vs SK-OV-3, […] Ab; NS = ratio <2.5-fold

Ratio anti-MUC16 Binding OVCAR-3/SK-OV-3	Substance
< 2.5	hIgG1 Isotype Control Antibody
< 2.5	mIgG1 Isotype Control Antibody
< 2.5	mIgG2a Isotype Control Antibody
